Assay [1] concerns the target recombinant human VEGF165 protein (human) (UniProt P15692). Briefly: cell-based or functional assay.
The target is the same in assay [2]. Briefly: streptavidin-coated sensor with immobilized biotin-labeled VEGF165, Fab at multiple concentrations.
For assay [3] the target is unchanged. Briefly: ELISA; coated VEGF165 titrated (0.15-3000 ng/mL), Fab fixed at 1 ug/mL; EC50 is in coated antigen concentration. For orientation: An ELISA detects its analyte on a solid surface through an enzyme-linked reagent.
Assay [4] shares this target. Briefly: streptavidin-coated sensor with immobilized biotin-labeled VEGF165; reference Lucentis.
The target is the same in assay [5]. Briefly: Table 3, binding affinity to recombinant VEGF165 (streptavidin-coated sensor, biotin-labeled VEGF165).

The values below come from patent US20220135665A1.

Where “and” joins values, the source holds several entries; their conditions need not be identical. Equal entries are not always repeated.

Usually Kd stands for a measure of binding affinity in units of concentration. Broadly, the koff is the first-order rate constant of dissociation. The term kon denotes the rate constant with which the complex forms. What is called EC50 is the midpoint of the concentration-response curve.

B1: Brolucizumab (scFv, INN chains, looked up, V domains shown)
VH: EVQLVESGGGLVQPGGSLRLSCTASGFSLTDYYYMTWVRQAPGKGLEWVGFIDPDDDPYYATWAKGRFTISRDNSKNTLYLQMNSLRAEDTAVYYCAGGDHNSGWGLDIWGQGTLVTVSS
VL: EIVMTQSPSTLSASVGDRVIITCQASEIIHSWLAWYQQKPGKAPKLLIYLASTLASGVPSRFSGSGSGAEFTLTISSLQPDDFATYYCQNVYLASTNGANFGQGTKLTVL
modifications: scFv
Consider B1, for which, in assay [1], the EC50(nM), neutralization of HUVEC proliferation, VEGF165 at 10 ng/mL was found to be 0.41 nM; the EC50(nM), neutralization of HUVEC proliferation, VEGF165 at 100 ng/mL amounted to 6.74 nM; the EC50(nM), neutralization of HUVEC proliferation, VEGF165 at 1000 ng/mL stood at 71.2 nM; the Maximum neutralization rate (%), VEGF165 at 10 ng/mL amounted to 100%. Moreover, in assay [1], the Maximum neutralization rate (%), VEGF165 at 100 ng/mL was 101% and the Maximum neutralization rate (%), VEGF165 at 1000 ng/mL was 101%.

B2: humanized antibody VEGF-H988 Fab fragment (Fab, V domains shown)
VH: QSVQESGPGLVKPSETLSLTCTVSGIDLSSYAISWVRQPPGKGLEYIGYIWNDLFTYYASWAKGRVTISVDTSKNQVDLKLSSVTAADTAVYFCARGTLGDYGGMDPWGQGTLVTVSS
VL: ELQLTQSPSSLSASVGDRVTITCQSSKFLWQGRRLAWYQQKPGKVPKLLIYGASTLASGVPSRFKGSGSGTDFTLTISSLQPEDVATYYCAGYKSYDGDVVGFGGGTKVEIKR
On to B2, for which, in assay [2], the Kd stood at 0.154 nM, the koff was 4.21e-05 s⁻¹ and the on-rate constant (kon) was 274000 M⁻¹ s⁻¹. The EC50(nM), neutralization of HUVEC proliferation, VEGF165 at 10 ng/mL in assay [1] is 0.23 nM and 0.18 nM and 0.22 nM. In addition, the EC50 in assay [3] was 0.0187 µg/mL. Further, in assay [4], the fold affinity against Lucentis came to 3.75 fold.

B3: VEGF-H988 (sample label in Table 3) (antibody, V domains shown)
VH: QSVQESGPGLVKPSETLSLTCTVSGIDLSSYAISWVRQPPGKGLEYIGYIWNDLFTYYASWAKGRVTISVDTSKNQVDLKLSSVTAADTAVYFCARGTLGDYGGMDPWGQGTLVTVSS
VL: ELQLTQSPSSLSASVGDRVTITCQSSKFLWQGRRLAWYQQKPGKVPKLLIYGASTLASGVPSRFKGSGSGTDFTLTISSLQPEDVATYYCAGYKSYDGDVVGFGGGTKVEIK
For the molecule B3, in assay [5], the Kd came to 0.0195 nM, the koff came out at 6.7e-06 s⁻¹ and the kon came to 344000 M⁻¹ s⁻¹.
